Legend:
HLA-A*02:01 [1] = test: IEDB peptide-MHC binding, purified MHC/competitive/radioactivity; filed as Kd, often an IC50 or EC50 that approximates it; ≥ and ≤ were set here for values at or beyond the usual limits of such assays; settings: source organism: Homo sapiens
HLA-A*02:01 [2] = test: IEDB peptide-MHC binding, purified MHC/competitive/radioactivity; ≥ and ≤ were set here for values at or beyond the usual limits of such assays; settings: source organism: Homo sapiens
HLA-C*12:03 = test: IEDB peptide-MHC binding, purified MHC/direct/fluorescence; filed as Kd, often an IC50 or EC50 that approximates it; ≥ and ≤ were set here for values at or beyond the usual limits of such assays; settings: source organism: Homo sapiens
HLA-B*15:42 = test: IEDB peptide-MHC binding, purified MHC/competitive/fluorescence; filed as Kd, often an IC50 or EC50 that approximates it; ≥ and ≤ were set here for values at or beyond the usual limits of such assays; settings: source organism: Homo sapiens
HLA-A*03:01 [3] = test: as above; settings: source organism: Homo sapiens
HLA-B*27:03 = test: as above; settings: source organism: Homo sapiens
HLA-A*32:15 = test: as above; settings: source organism: Homo sapiens
HLA-A*02:01 [4] = test: as above; settings: source organism: Homo sapiens
HLA-B*83:01 = test: as above; settings: source organism: Homo sapiens
HLA-A*26:01 [5] = test: as above; settings: source organism: Homo sapiens
HLA-B*45:06 = test: as above; settings: source organism: Homo sapiens
HLA-B*07:02 [6] = test: IEDB peptide-MHC binding, purified MHC/competitive/fluorescence; ≥ and ≤ were set here for values at or beyond the usual limits of such assays
HLA-B*08:01 [7] = test: as above; settings: source organism: Zaire ebolavirus
HLA-A*02:01 [8] = test: as above
HLA-B*15:01 [9] = test: as above
HLA-A*26:02 [10] = test: IEDB peptide-MHC binding, purified MHC/direct/fluorescence; filed as Kd, often an IC50 or EC50 that approximates it; ≥ and ≤ were set here for values at or beyond the usual limits of such assays
HLA-A*26:01 [11] = test: as above; settings: source organism: Giardia lamblia ATCC 50803
HLA-A*31:01 [12] = test: IEDB peptide-MHC binding, purified MHC/competitive/fluorescence; filed as Kd, often an IC50 or EC50 that approximates it; ≥ and ≤ were set here for values at or beyond the usual limits of such assays; settings: source organism: Dengue virus 2 Thailand/NGS-C/1944
HLA-A*11:01 [13] = test: as above
HLA-A*03:01 [14] = test: IEDB peptide-MHC binding, purified MHC/competitive/fluorescence; ≥ and ≤ were set here for values at or beyond the usual limits of such assays; settings: source organism: Variola virus
HLA-A*11:01 [15] = test: as above; settings: source organism: Variola virus
HLA-A*24:02 = test: as above; settings: source organism: Variola virus
HLA-A*31:01 [16] = test: IEDB peptide-MHC binding, purified MHC/direct/fluorescence; filed as Kd, often an IC50 or EC50 that approximates it; ≥ and ≤ were set here for values at or beyond the usual limits of such assays
HLA-B*27:05 = test: as above
HLA-A*01:01 = test: as above; settings: source organism: Marburg virus - Musoke, Kenya, 1980
HLA-B*46:01 = test: as above
HLA-B*07:02 [17] = test: as above
HLA-B*15:17 [18] = test: as above; settings: source organism: Marburg virus - Musoke, Kenya, 1980
HLA-A*02:01 [19] = test: as above
HLA-B*57:01 = test: as above
HLA-B*15:02 = test: as above; settings: source organism: Orthomarburgvirus marburgense
HLA-B*08:01 [20] = test: as above
HLA-A*11:01 [21] = test: as above; settings: source organism: Marburg virus - Musoke, Kenya, 1980
HLA-B*15:01 [22] = test: as above
HLA-A*69:01 = test: as above
HLA-B*58:01 = test: as above
HLA-A*68:02 = test: as above; settings: source organism: Marburg virus - Musoke, Kenya, 1980
HLA-B*48:01 = test: as above
HLA-A*26:02 [23] = test: IEDB peptide-MHC binding, purified MHC/competitive/fluorescence; filed as Kd, often an IC50 or EC50 that approximates it; ≥ and ≤ were set here for values at or beyond the usual limits of such assays; settings: source organism: Orthomarburgvirus marburgense
HLA-A*30:02 = test: IEDB peptide-MHC binding, purified MHC/competitive/radioactivity; filed as Kd, often an IC50 or EC50 that approximates it; ≥ and ≤ were set here for values at or beyond the usual limits of such assays; settings: source organism: Dengue virus 1 Brazil/97-11/1997
HLA-B*15:01 [24] = test: as above; settings: source organism: Dengue virus 1 Brazil/97-11/1997
HLA-A*03:01 [25] = test: IEDB peptide-MHC binding, purified MHC/direct/fluorescence; filed as Kd, often an IC50 or EC50 that approximates it; ≥ and ≤ were set here for values at or beyond the usual limits of such assays; settings: source organism: Influenza A virus (A/Hong Kong/514/97(H5N1))
HLA-B*40:01 = test: as above; settings: source organism: Influenza A virus (A/Hong Kong/514/97(H5N1))
HLA-C*08:02 = test: as above; settings: source organism: Influenza A virus (A/Hong Kong/1074/1999(H9N2))
HLA-B*15:17 [26] = test: IEDB peptide-MHC binding, purified MHC/competitive/fluorescence; filed as Kd, often an IC50 or EC50 that approximates it; ≥ and ≤ were set here for values at or beyond the usual limits of such assays; settings: source organism: Influenza A virus (A/Hong Kong/1074/1999(H9N2))
[27] = source organism: Zaire ebolavirus
[28] = source organism: Marburg virus - Musoke, Kenya, 1980
[29] = source organism: Influenza A virus (A/Hong Kong/514/97(H5N1))

## ARDPHSGHFV
HLA-A*02:01 [1]
  Kd: 2.71 µM
HLA-A*02:01 [2]
  IC50: ≥ 20 µM

## FLNPVIYTF
HLA-C*12:03
  Kd: 0.029 µM
HLA-B*15:42
  Kd: ≥ 5 µM
HLA-A*03:01 [3]
  Kd: ≥ 20 µM
HLA-B*27:03
  Kd: ≥ 20 µM
HLA-A*32:15
  Kd: 0.024 µM
HLA-A*02:01 [4]
  Kd: 0.0016 µM
HLA-B*83:01
  Kd: 0.24 µM
HLA-A*26:01 [5]
  Kd: ≥ 20 µM
HLA-B*45:06
  Kd: ≥ 5 µM

## GGRRTRREA
HLA-B*07:02 [6]; [27]
  IC50: ≥ 120 µM
HLA-B*08:01 [7]
  IC50: ≥ 223 µM

## GLMHNQDGL
HLA-B*07:02 [6]; [27]
  IC50: ≥ 81.9 µM
HLA-A*02:01 [8]; [27]
  IC50: 1.58 µM
HLA-B*15:01 [9]; [27]
  IC50: 51.6 µM

## ITSGHSWAY
HLA-A*26:02 [10]; source organism: Giardia lamblia ATCC 50803
  Kd: 0.034 µM
HLA-A*26:01 [11]
  Kd: 0.028 µM

## KTFVDLMRR
HLA-A*31:01 [12]
  Kd: 0.00102 µM
HLA-A*11:01 [13]; source organism: Dengue virus 2 Thailand/NGS-C/1944
  Kd: 0.0123 µM

## KVFLPNPAF
HLA-A*03:01 [14]
  IC50: 64.8 µM
HLA-B*07:02 [6]; source organism: Variola virus
  IC50: ≥ 143 µM
HLA-A*02:01 [8]; source organism: Variola virus
  IC50: 55.1 µM
HLA-A*11:01 [15]
  IC50: 40.5 µM
HLA-B*15:01 [9]; source organism: Variola virus
  IC50: 21 µM
HLA-A*24:02
  IC50: 9.77 µM

## NQQVTNSKY
HLA-A*31:01 [16]; [28]
  Kd: ≥ 20 µM
HLA-B*27:05; [28]
  Kd: ≥ 20 µM
HLA-A*01:01
  Kd: ≥ 20 µM
HLA-B*46:01; [28]
  Kd: ≥ 20 µM
HLA-B*07:02 [17]; [28]
  Kd: ≥ 20 µM
HLA-B*15:17 [18]
  Kd: ≥ 20 µM
HLA-A*02:01 [19]; [28]
  Kd: ≥ 20 µM
HLA-B*57:01; [28]
  Kd: ≥ 20 µM
HLA-B*15:02
  Kd: 0.087 µM
HLA-B*08:01 [20]; source organism: Orthomarburgvirus marburgense
  Kd: ≥ 20 µM
HLA-A*11:01 [21]
  Kd: ≥ 20 µM
HLA-B*15:01 [22]; [28]
  Kd: 0.0803 µM
HLA-A*69:01; [28]
  Kd: ≥ 20 µM
HLA-B*58:01; [28]
  Kd: ≥ 20 µM
HLA-A*68:02
  Kd: ≥ 20 µM
HLA-B*48:01; [28]
  Kd: ≥ 20 µM
HLA-A*26:02 [23]
  Kd: ≥ 20 µM

## RPVILSLPR
HLA-B*07:02 [6]; source organism: Variola virus
  IC50: 15 µM
HLA-A*02:01 [8]; source organism: Variola virus
  IC50: ≥ 187 µM
HLA-A*11:01 [15]
  IC50: ≥ 122 µM

## SVKKDLISY
HLA-A*30:02
  Kd: 0.0261 µM
HLA-B*15:01 [24]
  Kd: 0.00596 µM
HLA-A*26:02 [10]; source organism: dengue virus type 3
  Kd: 0.002 µM

## VSDGGPNLY
HLA-A*31:01 [16]; [29]
  Kd: ≥ 20 µM
HLA-B*27:05; [29]
  Kd: ≥ 20 µM
HLA-A*03:01 [25]
  Kd: ≥ 20 µM
HLA-B*46:01; [29]
  Kd: ≥ 20 µM
HLA-B*07:02 [17]; [29]
  Kd: ≥ 20 µM
HLA-A*02:01 [19]; [29]
  Kd: ≥ 20 µM
HLA-B*57:01; [29]
  Kd: 16.7 µM
HLA-B*08:01 [20]; source organism: Influenza A virus H3N2
  Kd: ≥ 20 µM
HLA-B*15:01 [22]; [29]
  Kd: 2.99 µM
HLA-A*69:01; [29]
  Kd: ≥ 20 µM
HLA-B*58:01; [29]
  Kd: 0.553 µM
HLA-B*40:01
  Kd: ≥ 20 µM
HLA-C*08:02
  Kd: 0.086 µM
HLA-B*48:01; [29]
  Kd: ≥ 20 µM
HLA-B*15:17 [26]
  Kd: 0.192 µM
HLA-A*11:01 [13]; source organism: Influenza A virus (A/Hong Kong/1074/1999(H9N2))
  Kd: ≥ 20 µM

Reference: the Immune Epitope Database (IEDB)
